Data taken from patent US10456446B2, “Use of human small leucine zipper protein in osteogenesis procedure” (Korea University Research and Business Foundation, priority 2013, dated 2019).

Legend:
[1] = system: ATDC5 cells; test: Chondrocyte differentiation marker mRNA in ATDC5 cells, RT-PCR and real-time PCR; format: cell-based; details: sLZIP 0.1 μg to 0.5 μg, in a reaction with insulin
Procedure: According to instructions of the manufacturer, a TRIzol reagent (Invitrogen, Carlsbad, Calif.) was added to directly lyse cells in a culture dish. Accupower RT PreMix (BioNeer, Daejeon, Korea) was used to synthesize cDNA from 2 μg of total RNA. A reaction was performed for 60 minutes at 42° C. and for 5 minutes at 94° C. PCR amplification was performed using oligomers listed in Table 2 and a Hipi PCR Mix Kit (ELPIS). As an internal control group, GAPDH was amplified. A PCR product was subjected to electrophoresis in 1-2% (w/v) agarose gel containing 0.5 μg/mL ethidium bromide. A size of the PCR product was measured by comparing it with 1 kb DNA ladder marker (Invitrogen). An intensity of bands amplified according to RT-PCR was analyzed using MultiImage™ Light Cabinet (version 5.5, Alpha Innotech Corp., San Leandro, Calif.).
Real-time PCR was performed in LightCycler 480 using a SYBR Green Master Mix (Roche, Mannheim, Germany). β-actin was used as an internal control group. A target gene expression level rate with respect to β-actin was calculated using CT method. A Ct value is defined as a PCR cycle number at which a fluorescence signal reaches a fixed target threshold. Experiments were technically repeated three times for each experiment. […]

[2] = molecular target: T1, PPARγ2 (Mus musculus, UniProt P37238); test: PPARγ2 transcriptional activity in FABP4-Luc stable C3H10T1/2 cells differentiated into adipocytes; format: cell-based; details: sLZIP-expressing adenovirus, differentiated into adipocytes for 4 days
T1 construct: endogenous in cells
T1 sequence (P37238 1-505): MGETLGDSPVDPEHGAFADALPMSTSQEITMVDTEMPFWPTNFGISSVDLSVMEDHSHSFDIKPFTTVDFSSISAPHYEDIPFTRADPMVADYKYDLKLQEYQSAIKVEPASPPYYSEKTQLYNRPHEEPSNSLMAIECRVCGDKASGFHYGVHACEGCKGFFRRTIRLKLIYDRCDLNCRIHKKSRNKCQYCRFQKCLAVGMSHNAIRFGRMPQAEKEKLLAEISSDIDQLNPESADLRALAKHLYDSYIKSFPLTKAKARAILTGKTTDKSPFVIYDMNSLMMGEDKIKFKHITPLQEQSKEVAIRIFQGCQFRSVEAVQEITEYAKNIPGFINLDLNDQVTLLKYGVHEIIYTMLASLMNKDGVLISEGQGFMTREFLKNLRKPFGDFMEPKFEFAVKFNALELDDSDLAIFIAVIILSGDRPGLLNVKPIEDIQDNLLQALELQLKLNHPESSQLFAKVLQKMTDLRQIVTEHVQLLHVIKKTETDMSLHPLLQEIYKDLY

[3] = molecular target: T2, PPARγ2 and HDAC3 (Homo sapiens, UniProt P37231); test: GST pull-down, effect on interaction between PPARγ2 and HDAC3; format: binding; details: in the presence of ligand (10 nM RZD, 24 hours)
T2 construct: expressed in transfected cells; host or cells: 293T
T2 sequence (P37231 1-505): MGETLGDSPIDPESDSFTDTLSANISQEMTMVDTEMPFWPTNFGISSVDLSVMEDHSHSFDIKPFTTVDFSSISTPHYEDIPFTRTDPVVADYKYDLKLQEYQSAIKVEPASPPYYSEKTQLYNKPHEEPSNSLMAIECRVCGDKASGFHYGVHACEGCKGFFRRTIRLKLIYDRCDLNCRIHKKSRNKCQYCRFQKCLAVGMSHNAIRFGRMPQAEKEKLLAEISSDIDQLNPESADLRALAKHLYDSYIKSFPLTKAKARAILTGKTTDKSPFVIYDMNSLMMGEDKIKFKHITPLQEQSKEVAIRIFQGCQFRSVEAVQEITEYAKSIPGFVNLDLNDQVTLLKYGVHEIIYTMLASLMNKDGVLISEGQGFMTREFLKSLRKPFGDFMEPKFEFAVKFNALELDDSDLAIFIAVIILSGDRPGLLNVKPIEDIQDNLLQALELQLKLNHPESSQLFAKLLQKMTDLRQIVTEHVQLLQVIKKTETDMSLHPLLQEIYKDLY
Procedure: Therefore, in order to understand a regulation mechanism of sLZIP in the PPARγ2 transcriptional activity by binding to the FABP4 promoter region, an effect of sLZIP on the interaction between PPARγ2 and HDAC3 was examined. For this purpose, 293T cells were transfected with GST-HDAC3, Myc-PPARγ2 and Flag-sLZIP, and were treated or not treated with 10 nM of RZD for 24 hours. Cell lysates were subjected to GST pull-down analysis using a glutathione 4B bead, and a protein complex was analyzed in SDS-PAGE, and then immunoblotted with anti-GST, anti-Myc and anti-Flag antibodies (FIG. 6A). GST-HDAC3, GST-PPARγ2, Myc-PPARγ2, Flag-sLZIP and Ha-UB were expressed in the 293T cells, and the cells were treated with 10 nM of RZD for 24 hours. Cell lysates were subjected to GST pull-down analysis (FIG. 6B). GST-PPARγ2 and Flag-sLZIP were expressed in the 293T cells and treated with 10 nM of RZD for 24 hours. Cell lysates were subjected to GST pull-down analysis, and a protein complex was analyzed in SDS-PAGE, and then immunoblotted with anti-PGC1α, anti-GST and anti-Flag antibodies (FIG. 6C).

transcriptional activity of PPARγ2 (relative luciferase activity) [2]: decreased
B1: sLZIP: human small leucine-zipper protein, isoform of LZIP, 354 amino acids, no transmembrane domain, GenBank FJ263669, SEQ ID NO: 1 (protein, listed as Homo sapiens)
chain: MELELDAGDQDLLAFLLEESGDLGTAPDEAVRAPLDWALPLSEVPSDWEVDDLLCSLLSPPASLNILSSSNPCLVHHDHTYSLPRETVSMDLESESCRKEGTQMTPQHMEELAEQEIARLVLTDEEKSLLEKEGLILPETLPLTKTEEQILKRVRRKIRNKRSAQESRRKKKVYVGGLESRVLKYTAQNMELQNKVQLLEEQNLSLLDQLRKLQAMVIEISNKTSSSSMYSSDTRGSLPAEHGVLSRQLRALPSEDPYQLELPALQSEVPKDSTHQWLDGSDCVLQAPGNTSCLLHYMPQAPSAEPPLEWPFPDLFSEPLCRGPILPLQANLTRKGGWLPTGSPSVILQDRYSG
expression of chondrocyte differentiation marker genes (Sox9, ColIIIA1) [1]: no influence
interaction between PPARγ2 and HDAC3 [3]: enhanced interaction between PPARγ2 and HDAC3
